Results on two molecules are retold here after publication PMC5643561, “Zdhhc13-dependent Drp1 S-palmitoylation impacts brain bioenergetics, anxiety, coordination and motor skills” (Scientific Reports, 2017).

The experiment deals with T1, Drp1, recombinant, purified (Novus Biologicals # H00010059-P01) (UniProt O00429 1-736).
T1 construct: Drp1 (dynamin-related protein 1); The methods call Drp1 GST-tagged and immobilised; The results describe it as untagged analyte at 56, 167 and 500 nM; also called GST-tagged recombinant, purified Drp1; recombinant Drp1; source: bought: Novus Biologicals, # H00010059-P01
T1 sequence (O00429 whole entry): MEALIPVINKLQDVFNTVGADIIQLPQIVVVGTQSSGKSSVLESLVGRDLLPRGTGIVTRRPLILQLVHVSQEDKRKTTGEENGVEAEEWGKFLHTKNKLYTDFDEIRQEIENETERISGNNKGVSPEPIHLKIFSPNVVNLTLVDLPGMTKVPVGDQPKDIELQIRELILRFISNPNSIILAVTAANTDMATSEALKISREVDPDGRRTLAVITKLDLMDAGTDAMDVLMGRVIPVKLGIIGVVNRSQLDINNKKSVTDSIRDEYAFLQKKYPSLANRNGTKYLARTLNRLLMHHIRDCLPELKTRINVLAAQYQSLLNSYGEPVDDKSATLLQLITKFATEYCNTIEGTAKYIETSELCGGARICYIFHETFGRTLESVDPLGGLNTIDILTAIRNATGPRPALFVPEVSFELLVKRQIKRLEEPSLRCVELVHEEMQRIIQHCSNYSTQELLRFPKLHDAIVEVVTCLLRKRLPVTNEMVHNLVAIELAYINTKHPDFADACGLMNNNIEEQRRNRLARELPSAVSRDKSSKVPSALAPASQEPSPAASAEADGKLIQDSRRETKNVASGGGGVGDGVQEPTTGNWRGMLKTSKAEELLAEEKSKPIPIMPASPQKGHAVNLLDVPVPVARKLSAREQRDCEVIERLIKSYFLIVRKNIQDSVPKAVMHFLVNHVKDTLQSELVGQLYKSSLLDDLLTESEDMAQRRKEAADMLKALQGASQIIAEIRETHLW
Put plainly: BLI; Octet RED384 (ForteBio), anti-GST biosensor. Methods: GST-Drp1 immobilised, WT or L203X Zdhhc13 in solution. Results: GST-Zdhhc13 captured, Drp1 at 56, 167 and 500 nM. The conditions noted are these: both partners purified. A general note: Biolayer interferometry detects binding as a change in optical thickness at a sensor tip.

As a reminder, the Kd is the equilibrium constant for the complex coming apart. For orientation: koff means the first-order rate constant of dissociation. One may read the kon as the second-order rate constant of association.

B1: Zdhhc13 L203X, truncated form, recombinant (mouse sequence) (domain or fragment, UniProt Q9CWU2 1-202, looked up)
chain: MEGPGLGSQCRNHSHGSHVPGFGRHGICVHENKELAKAKEILPLIEDSSNCDIVKATQYGIFERCKELVEAGYDVRQPDRENVSLLHWAAINNRLELVKFYISKGAVIDQLGGDLNSTPLHWAIRQGHLPMVILLLQHGADPTLIDGEGFSSIHLAVLFQHMPIIAYLISKGQSVNMTDVNGQTPLMLSAYKVIGPEPTGFL
notes: Zdhhc13, mouse, UniProtKB Q9CWU2; naturally occurring nonsense mutation L203X (premature stop codon at codon 203), so the chain ends at residue 202; also called L203X Zdhhc13; truncated Zdhhc13; source: purified recombinant (culture eluate)
Regarding B1, the dissociation constant Kd stood at 88 nM, the off-rate (koff) worked out at 0.0018 s⁻¹ and the kon came out at 21000 M⁻¹ s⁻¹.

B2: Zdhhc13, wild type, recombinant (mouse sequence) (enzyme, UniProt Q9CWU2 1-622, looked up)
chain: MEGPGLGSQCRNHSHGSHVPGFGRHGICVHENKELAKAKEILPLIEDSSNCDIVKATQYGIFERCKELVEAGYDVRQPDRENVSLLHWAAINNRLELVKFYISKGAVIDQLGGDLNSTPLHWAIRQGHLPMVILLLQHGADPTLIDGEGFSSIHLAVLFQHMPIIAYLISKGQSVNMTDVNGQTPLMLSAYKVIGPEPTGFLLKFNPSLSVVDKTHQNTPLHWAVAAGNVSAVDKLLEAGSSLDIRNAKGETPLDMALQSKNQLISHMLRTEAKMRANKQFRLWRWLHKCELFLLLILSMITLWAVGYILDFNSDSWLLKGCLLVALFFLTSLFPRFLVGYKNLVYLPTVFLLSSIFWIFMTWFILFFPDTAGSPLYFAFIFSIMAFLYFFYKTWATDPGFTKASEEERKVNIVTLAETGSLDFRTFCTSCLIRKPLRSLHCHVCNSCVARFDQHCFWTGRCIGFGNHHHYIFFLLSLSMVCDWIIYGSFVYWSNHCATTFKEDGLWTYLNQIVACSPWVLYIFMLAAFHFSWSTFLLINQLFQIAFLGLTSHERISLLKQSRHMKQTLSLRKTPYNLGFTQNLADFFQCGCFGLVKPCIIDWTSQYTMVFHPAKEKVLRSV
notes: Zdhhc13, mouse, UniProtKB Q9CWU2; also called WT Zdhhc13; full length GST-tagged Zdhhc13; source: purified recombinant (culture supernatant)
Consider B2, for which the Kd amounted to 560 nM, the dissociation rate constant (koff) amounted to 0.046 s⁻¹ and the association rate constant (kon) stood at 82000 M⁻¹ s⁻¹.
